Assay results from patent US20040147443A1.

Key:
[1] = molecular target: type-L calcium channels, verapamil site (rat cerebral cortex homogenates) (rat); test: specific binding of 0.5 nM (3H)(-)D 888 left with 1.0% Argireline; rat cerebral cortex membranes, scintillation counting
[2] = molecular target: type-L calcium channels, verapamil site (rat cerebral cortex homogenates) (rat); test: specific binding of 0.5 nM (3H)(-)D 888 left with 1.0% Argireline; rat cerebral cortex membranes, scintillation counting; replicate 2
[3] = molecular target: type-L calcium channels, verapamil site (rat cerebral cortex homogenates) (rat); test: inhibition of specific binding of 0.5 nM (3H)(-)D 888 by the MIXTURE of 1.0% Argireline and 1 x 10^-4 M magnesium gluconate; rat cerebral cortex membranes
[4] = molecular target: type-L calcium channels, verapamil site (rat cerebral cortex homogenates) (rat); test: specific binding of 0.5 nM (3H)(-)D 888 left with the MIXTURE of 1.0% Argireline and 1 x 10^-4 M magnesium gluconate; rat cerebral cortex membranes
[5] = molecular target: type-L calcium channels, verapamil site (rat cerebral cortex homogenates) (rat); test: specific binding of 0.5 nM (3H)(-)D 888 left with 1.0% Argireline; rat cerebral cortex membranes, scintillation counting; replicate 3
[6] = molecular target: type-L calcium channels, verapamil site (rat cerebral cortex homogenates) (rat); test: specific binding of 0.5 nM (3H)(-)D 888 left with the MIXTURE of 1.0% Argireline and 1 x 10^-4 M magnesium gluconate; rat cerebral cortex membranes; replicate 2
[7] = molecular target: type-L calcium channels, verapamil site (rat cerebral cortex homogenates) (rat); test: inhibition of specific binding of (3H)(-)D 888 by 5% Argireline; rat cerebral cortex membranes
[8] = molecular target: type-L calcium channels, verapamil site (rat cerebral cortex homogenates) (rat); test: specific binding of 0.5 nM (3H)(-)D 888 left with the MIXTURE of 1.0% Argireline and 1 x 10^-4 M magnesium gluconate; rat cerebral cortex membranes; replicate 3
[9] = molecular target: type-L calcium channels, verapamil site (rat cerebral cortex homogenates) (rat); test: inhibition of specific binding of 0.5 nM (3H)(-)D 888 by 1.0% Argireline; rat cerebral cortex membranes, scintillation counting
[10] = molecular target: type-L calcium channels, verapamil site (rat cerebral cortex homogenates) (rat); test: inhibition of specific binding of (3H)(-)D 888 by 10% Argireline; rat cerebral cortex membranes
[11] = molecular target: type-L calcium channels, verapamil site (rat cerebral cortex homogenates) (rat); test: specific binding of 0.5 nM (3H)(-)D 888 left with 1.0% Argireline; rat cerebral cortex membranes, scintillation counting; replicate 1
[12] = molecular target: type-L calcium channels, verapamil site (rat cerebral cortex homogenates) (rat); test: specific binding of 0.5 nM (3H)(-)D 888 left with the MIXTURE of 1.0% Argireline and 1 x 10^-4 M magnesium gluconate; rat cerebral cortex membranes; replicate 1

A Mean % of binding [1] of 96.1%, a % of binding [2] of 93.1% and a Mean % of inhibition [3] of 16% were found for Ac-EEMQRR-NH2 in this work. The Mean % of binding [4] was 84%, the % of binding [5] was 99.9% and the % of binding [6] was 85.3%. The mean percentage of inhibition [7] was 36%, the % of binding [8] was 85.1% and the Mean % of inhibition [9] was 4%. It also gave a mean percentage of inhibition [10] of 52%, a % of binding [11] of 95.1% and a % of binding [12] of 81.6%.
